B1: LINE1-full (parent)
chain: UACGUAGGUGGUUUUCCCCUGAUAGUGCUAAGGGGGCCUGGAAGUUUGGACUGGGCAGAGCUCAACACAGCGUGGCAAAGUGGCUGUGGCUAGACUGCCUCUCUGGAUUCCUCGUCACUCAGCAGGGCAUCUCUGAGAGAAAUGCC

Variants of: B1
Assay: self-cleavage, relative activity (ratio to wild type); higher = more cleavage; in vitro, sequencing; the parent is a self-cleaving ribozyme

| Variant | self-cleavage |
| --- | --- |
| U81C A117G | 1.21 |
| G33U U96A | 0.06 |
| U9C A67U | 0.26 |
| U1A U132A | 1.35 |
| U81C A107G | 1.21 |
| G48A C63U | 0.36 |
| G10A | 1.11 |
| U29G U130C | 0.63 |
| A22G U26C | 0.83 |
| U15A U112A | 1.53 |
| A67G A136U | 0.4 |
| G75A A129G | 1.61 |
| A31G C98A | 0 |
| A69G U102C | 0.47 |
| G82A U102A | 2.12 |
| A24G A142G | 1.1 |
| U104A U109A | 0.42 |
| G44A A67G | 0.37 |
| U26C G53U | 1.2 |
| U5C U73A | 1.74 |
| A64U A138G | 0.52 |
| U14A U119A | 1.02 |
| A117G A121C | 1.78 |
| G93A U119C | 0.04 |

| Variant | self-cleavage |
| --- | --- |
| C56U G86A | 0.04 |
| A30U A92G | 0.11 |
| U87C C120U | 0.13 |
| A2G A57G | 0.68 |
| U26C U62G | 0.07 |
| A94G A117C | 0.26 |
| U52C C98A | 0.1 |
| U45A A65G | 0.07 |
| U5A A140G | 0.88 |
| U15C U45G | 1.2 |
| U47G U96C | 0.21 |
| A57C U119A | 0.06 |
| G10A A43G | 0.83 |
| U9A G55C | 0.09 |
| C19U U47A | 0.69 |
| G27A U108C | 1.15 |
| C110A A140G | 1.44 |
| A6G U13C | 0.93 |
| U14A C99U | 0.85 |
| U81C A129U | 1.48 |
| U87C U102C | 0.36 |
| U73G U96C | 0 |
| U39A U87A | 0.07 |
| A129U A142G | 1.43 |

| Variant | self-cleavage |
| --- | --- |
| G27A A65G | 0.05 |
| C19U U23C | 0.79 |
| U47C C84U | 0.38 |
| A31U A64G | 0.2 |
| G72A A94G | 0.33 |
| A43U A67G | 0.56 |
| A67G U87A | 0.12 |
| U23C U115A | 1.23 |
| A43G C84U | 0.16 |
| A67C A136G | 0.12 |
| C76G C84A | 0.14 |
| A78G A138U | 1 |
| U73C G74A | 2.38 |
| U20A G97C | 0.34 |
| U47A U96A | 0.08 |
| C95A A136U | 0.05 |
| A30G A79G | 1.19 |
| A92G C120U | 0.07 |
| G36C A121G | 1.39 |
| C90U A141G | 0.03 |
| G82A C84U | 0.51 |
| U104C U130G | 1.5 |
| U9G A22G | 0.93 |
| U20C A124G | 1.06 |

| Variant | self-cleavage |
| --- | --- |
| C38U U104C | 1.71 |
| U87C C118U | 0.22 |
| U13C U130A | 1.6 |
| U85C C113U | 0.1 |
| A94C A124U | 0 |
| G80A U96C | 0.18 |
| U45A U47C | 1.45 |
| G33A U52A | 0.53 |
| A24G U104C | 2.26 |
| U9C G36U | 2.08 |
| G83A A136G | 1.05 |
| G4A U96A | 0.08 |
| A124U C128U | 1.21 |
| U12A U39C | 1.17 |
| C71U U134A | 0.36 |
| A30G G83C | 0.66 |
| G88U A140G | 0.04 |
| A6G G83A | 0.26 |
| U85C U102A | 0.18 |
| U14A U134A | 0.81 |
| A65G U115C | 0.05 |
| U46A G55A | 0.24 |
| G53A U102A | 1.3 |
| A65G U85C | 0.13 |

| Variant | self-cleavage |
| --- | --- |
| U45A U46G | 1.29 |
| U15A A42G | 1.31 |
| A79G C99U | 0.38 |
| G8A U46A | 2.02 |
| U73A A121G | 1.93 |
| A65G C76U | 0.02 |
| U62C U85A | 0.03 |
| U96C C146A | 0.25 |
| C19U U52G | 0.5 |
| G8A A78G | 2.03 |
| C56U A124G | 0.08 |
| U9G G44A | 1.53 |
| U39G U46C | 1.36 |
| A77U A79U | 1.89 |
| C61G A77U | 0.04 |
| A43U A107U | 1.81 |
| U39A U62G | 0.04 |
| C116U A124U | 1.87 |
| U85C C90A | 0.07 |
| A30U U87C | 0.23 |
| U20C A140C | 2.05 |
| U12G G72A | 0.9 |
| G89A A117G | 0.05 |
| A67G G137A | 0.64 |

| Variant | self-cleavage |
| --- | --- |
| A65G U132C | 0.07 |
| G49A A129U | 1.46 |
| G126U U134C | 1.49 |
| U29G U85C | 0.46 |
| G74A A124U | 1.22 |
| G74U U112C | 1.64 |
| U15A A117G | 1.24 |
| U14A U39A | 0.8 |
| G60A U119A | 0.11 |
| A67U A142G | 0.15 |
| U12C U14G | 0.59 |
| C84G G93A | 0.08 |
| A6U C71U | 1.15 |
| U1C G83U | 0.25 |
| A24U A77U | 0.93 |
| A69G G139U | 0.36 |
| G32A A107G | 1.09 |
| A77U A121U | 1.27 |
| U9C U39A | 1.17 |
| U52C C95G | 0.09 |
| G8A G86A | 0.09 |
| A77U U100A | 0.91 |
| U13C A138C | 1.13 |
| G34U C146U | 1.39 |

| Variant | self-cleavage |
| --- | --- |
| G36A C113U | 1.02 |
| A94U U130A | 0.23 |
| U52A A79U | 2.26 |
| U14C U23G | 0.93 |
| G72A U132C | 1.13 |
| U15C A59U | 0.94 |
| U39G A121G | 1.23 |
| U102C | 1.29 |
| U108A A138G | 1.79 |
| A30U A42G | 0.99 |
| U9A C113U | 0.97 |
| U134G A142G | 1.16 |
| G7U U45C | 0.86 |
| A79G A138G | 1.22 |
| U15C U109A | 1.41 |
| U12G A64C | 0.55 |
| U20A C38U | 0.87 |
| U91C U100A | 0.15 |
| G72A G135U | 1.2 |
| U109C U119A | 0.7 |
| A31G U81A | 0.66 |
| U87C U91C | 0.31 |
| A67G C99U | 0.27 |

From the RNAGym collection of RNA variant scans (doi:10.7554/elife.90254)
